According to PMC5095173, “Disulfide-activated protein kinase G Iα regulates cardiac diastolic relaxation and fine-tunes the Frank–Starling response” (Nature Communications, 2016):

Biological target: T1, phospholamban (mouse myocardium) (mouse (endogenous in mouse heart)), P61014
T1 chain: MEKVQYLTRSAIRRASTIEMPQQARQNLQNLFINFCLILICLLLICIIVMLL
Experiment: SDS-PAGE of samples not boiled, with immunoblot; mouse heart homogenate, samples not boiled before western blotting for total PLN; WT and C42S PKGIα KI hearts
Conditions: remark: other sources report otherwise

B1: phospholamban (mouse myocardium), P61014 1-52 (natural protein)
chain: MEKVQYLTRSAIRRASTIEMPQQARQNLQNLFINFCLILICLLLICIIVMLL
  stoichiometry N: 5
